From article PMC3718736

Molecular target: VHH2-Fc antibody (VHH C2 fused to the Fc of human IgG1) (llama (Lama glama))
Assay: SPR; Biacore 3000; […] (10 mM acetate pH 3.5); […]

Sequence of VHH2-Fc antibody (VHH C2 fused to the Fc of human IgG1) (llama (Lama glama)) (heavy, as listed by the source): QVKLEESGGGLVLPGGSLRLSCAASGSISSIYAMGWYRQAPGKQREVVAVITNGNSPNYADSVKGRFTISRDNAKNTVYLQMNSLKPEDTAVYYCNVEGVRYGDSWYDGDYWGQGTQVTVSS

α-cobratoxin (from UniProt P01391 1-71) (natural protein)
koff: 5e-05 s⁻¹
